# Measured values: PMC12803953, “The MO25 protein Pmo25 functions in contractile ring stability and Sid2 localization during cytokinesis” (iScience, 2025)
# Experiments:
# [1] = molecular target: T1, MBP-Ync13-full length-6His (S. pombe, UniProt O13683 1-1237); assay: pull-down; Kd by depletion of the supernatant: various concentrations of MBP-Ync13 proteins immobilised on amylose beads with a fixed low concentration of Pmo25-(19–329)-6His, 1 h at 4°C; supernatant on SDS-PAGE, Coomassie Blue; one site binding equation; details: both partners purified
# T1 construct: cloned in pET21a-MBP between the MBP-TEV-GGSGGS fragment and the C-terminal 6xHis tag; A TEV site and a GGSGGS linker stand between MBP and Ync13; also called MBP-tagged full length Ync13; not shown: MBP, N-terminal, kept; His6, C-terminal, kept
# T1 sequence (looked up): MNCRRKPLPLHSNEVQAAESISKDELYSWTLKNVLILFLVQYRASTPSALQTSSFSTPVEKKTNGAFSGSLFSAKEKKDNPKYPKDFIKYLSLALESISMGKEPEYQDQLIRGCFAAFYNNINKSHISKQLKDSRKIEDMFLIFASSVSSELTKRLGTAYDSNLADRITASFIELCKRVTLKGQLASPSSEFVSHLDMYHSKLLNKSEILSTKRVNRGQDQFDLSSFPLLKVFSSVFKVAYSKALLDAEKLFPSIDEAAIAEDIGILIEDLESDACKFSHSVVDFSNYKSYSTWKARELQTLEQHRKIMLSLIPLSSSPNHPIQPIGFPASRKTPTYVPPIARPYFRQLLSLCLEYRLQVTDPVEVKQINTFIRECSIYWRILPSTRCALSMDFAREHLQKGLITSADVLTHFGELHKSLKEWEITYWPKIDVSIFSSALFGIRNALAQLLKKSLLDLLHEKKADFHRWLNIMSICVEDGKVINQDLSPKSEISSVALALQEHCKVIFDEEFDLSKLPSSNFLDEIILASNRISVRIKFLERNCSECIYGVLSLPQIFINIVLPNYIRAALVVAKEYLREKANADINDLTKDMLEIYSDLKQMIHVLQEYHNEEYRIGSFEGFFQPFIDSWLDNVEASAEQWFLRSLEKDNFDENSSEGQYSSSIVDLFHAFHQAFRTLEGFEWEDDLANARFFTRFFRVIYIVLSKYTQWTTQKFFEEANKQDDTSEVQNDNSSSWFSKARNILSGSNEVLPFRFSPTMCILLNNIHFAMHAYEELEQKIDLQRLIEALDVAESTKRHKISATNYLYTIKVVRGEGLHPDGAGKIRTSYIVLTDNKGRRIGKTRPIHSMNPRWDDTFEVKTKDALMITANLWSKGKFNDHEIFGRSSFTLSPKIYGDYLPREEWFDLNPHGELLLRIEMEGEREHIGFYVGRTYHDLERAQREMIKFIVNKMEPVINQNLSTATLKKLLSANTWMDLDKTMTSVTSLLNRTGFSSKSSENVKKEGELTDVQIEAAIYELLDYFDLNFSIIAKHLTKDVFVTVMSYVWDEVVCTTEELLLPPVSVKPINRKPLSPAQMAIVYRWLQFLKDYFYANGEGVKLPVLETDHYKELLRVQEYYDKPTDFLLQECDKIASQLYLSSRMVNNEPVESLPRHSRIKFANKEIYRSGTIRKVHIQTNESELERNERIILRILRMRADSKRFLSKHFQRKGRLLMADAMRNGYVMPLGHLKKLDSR
# [2] = molecular target: T2, MBP-Ync13-(591–1130)-6His (S. pombe, UniProt O13683 591-1130); assay: as above; details: both partners purified
# T2 construct: The cloning of this fragment is not described; not shown: MBP, N-terminal, kept; His6, C-terminal, kept
# T2 sequence (looked up): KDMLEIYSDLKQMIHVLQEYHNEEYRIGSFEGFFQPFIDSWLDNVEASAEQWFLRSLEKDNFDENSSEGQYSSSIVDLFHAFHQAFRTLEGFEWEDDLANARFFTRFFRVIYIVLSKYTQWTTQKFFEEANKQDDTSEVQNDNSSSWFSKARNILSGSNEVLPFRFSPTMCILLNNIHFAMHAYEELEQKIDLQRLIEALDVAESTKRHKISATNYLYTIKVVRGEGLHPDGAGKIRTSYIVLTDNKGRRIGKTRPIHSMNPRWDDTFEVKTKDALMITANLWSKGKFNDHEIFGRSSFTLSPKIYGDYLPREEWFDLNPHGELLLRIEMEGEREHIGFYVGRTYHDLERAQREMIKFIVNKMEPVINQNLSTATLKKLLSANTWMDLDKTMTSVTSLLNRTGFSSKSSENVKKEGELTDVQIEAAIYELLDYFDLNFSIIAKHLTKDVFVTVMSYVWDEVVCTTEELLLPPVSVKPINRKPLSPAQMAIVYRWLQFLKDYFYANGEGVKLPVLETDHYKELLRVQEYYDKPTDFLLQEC
binder,measurement,setting,value
"Pmo25-(19–329)-6His (domain or fragment, S. pombe, UniProt Q9P7Q8 19-329, looked up, in pET21a between the N-terminal T7 tag and the C-terminal 6xHis tag; not shown: His6, C-terminal, kept) LCDNLPKLEINNDKKKSFEEVSKCLQNLRVSLCGTAEVEPDADLVSDLSFQIYQSNLPFLLVRYLPKLEFESKKDTGLIFSALLRRHVASRYPTVDYMLAHPQIFPVLVSYYRYQEVAFTAGSILRECSRHEALNEVLLNSRDFWTFFSLIQASSFDMASDAFSTFKSILLNHKSQVAEFISYHFDEFFKQYTVLLKSENYVTKRQSLKLLGEILLNRANRSVMTRYISSAENLKLMMILLRDKSKNIQFEAFHVFKLFVANPEKSEEVIEILRRNKSKLISYLSAFHTDRKNDEQFNDERAFVIKQIERL",Kd,[1],490 nM
same,Kd,[2],620 nM
